# Measurements: patent publication WO2012119989A2 (dated 2012)
# Where a chain is given by its changes, count along the chain named.
# T1: Cell adhesion molecule-1 (CADM1), human, on the cell surface (human) (UniProt Q9BY67)
# T1 sequence (looked up): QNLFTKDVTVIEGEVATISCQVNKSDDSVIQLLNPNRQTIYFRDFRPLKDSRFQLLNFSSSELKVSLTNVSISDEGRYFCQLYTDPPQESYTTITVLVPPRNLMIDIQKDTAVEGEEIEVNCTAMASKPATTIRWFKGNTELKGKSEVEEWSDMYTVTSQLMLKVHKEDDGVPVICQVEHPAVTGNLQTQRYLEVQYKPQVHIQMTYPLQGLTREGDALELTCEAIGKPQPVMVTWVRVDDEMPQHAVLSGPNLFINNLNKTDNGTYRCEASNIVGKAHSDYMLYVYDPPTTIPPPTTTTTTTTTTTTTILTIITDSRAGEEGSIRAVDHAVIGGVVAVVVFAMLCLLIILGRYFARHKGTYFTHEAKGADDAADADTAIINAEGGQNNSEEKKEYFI
# T2: CADM1 extracellular domain expressed by the CHO-Flpln CADM1 cell line (human) (UniProt Q9BY67)
# T2 sequence: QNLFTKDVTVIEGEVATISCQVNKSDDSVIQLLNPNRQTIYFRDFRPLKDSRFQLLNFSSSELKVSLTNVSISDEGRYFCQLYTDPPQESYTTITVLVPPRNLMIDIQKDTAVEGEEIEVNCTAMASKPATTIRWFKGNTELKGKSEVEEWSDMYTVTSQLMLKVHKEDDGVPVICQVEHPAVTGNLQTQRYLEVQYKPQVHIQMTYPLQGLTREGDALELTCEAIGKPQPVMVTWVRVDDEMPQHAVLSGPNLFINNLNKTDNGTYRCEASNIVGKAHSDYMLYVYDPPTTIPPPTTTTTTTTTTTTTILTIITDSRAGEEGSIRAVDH
# T3: Cell adhesion molecule-1 (CADM1), human, on the cell surface (human, UniProt Q9BY67 45-442)
# T3 construct: whole, on cells; also called TSLC1; IGSF4
# T3 sequence (looked up): T1 sequence (looked up)
# T4: CADM2, human, on transfected CHO cells (human, UniProt Q8N3J6 25-435)
# T4 construct: whole, on cells
# T4 sequence (looked up): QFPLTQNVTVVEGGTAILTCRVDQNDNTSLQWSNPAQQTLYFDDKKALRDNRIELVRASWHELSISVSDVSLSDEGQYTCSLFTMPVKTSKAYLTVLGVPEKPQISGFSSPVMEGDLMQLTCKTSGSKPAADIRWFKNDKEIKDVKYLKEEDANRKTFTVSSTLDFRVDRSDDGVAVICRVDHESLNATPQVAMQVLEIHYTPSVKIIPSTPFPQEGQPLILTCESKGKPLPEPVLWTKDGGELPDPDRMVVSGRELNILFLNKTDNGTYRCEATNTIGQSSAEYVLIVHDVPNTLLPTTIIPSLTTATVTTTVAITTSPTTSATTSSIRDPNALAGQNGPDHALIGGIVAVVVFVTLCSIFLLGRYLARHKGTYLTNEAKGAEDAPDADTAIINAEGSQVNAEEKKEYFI
# T5: CADM4, human, on transfected CHO cells (human, UniProt Q8NFZ8 21-388)
# T5 construct: whole, on cells; also called CAD 4
# T5 sequence (looked up): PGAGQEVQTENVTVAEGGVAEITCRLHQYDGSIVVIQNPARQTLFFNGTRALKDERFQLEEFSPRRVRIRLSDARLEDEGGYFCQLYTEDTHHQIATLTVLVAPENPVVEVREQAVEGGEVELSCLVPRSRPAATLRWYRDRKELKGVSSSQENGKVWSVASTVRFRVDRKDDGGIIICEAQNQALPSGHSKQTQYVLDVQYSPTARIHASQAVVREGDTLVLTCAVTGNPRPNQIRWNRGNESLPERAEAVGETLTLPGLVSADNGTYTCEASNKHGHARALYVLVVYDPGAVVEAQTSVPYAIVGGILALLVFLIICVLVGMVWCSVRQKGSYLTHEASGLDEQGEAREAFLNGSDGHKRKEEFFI
# T6: CADM3, human, on transfected CHO cells (human, UniProt Q8N126 25-398)
# T6 construct: whole, on cells; also called CADSV13 (OCR)
# T6 sequence (looked up): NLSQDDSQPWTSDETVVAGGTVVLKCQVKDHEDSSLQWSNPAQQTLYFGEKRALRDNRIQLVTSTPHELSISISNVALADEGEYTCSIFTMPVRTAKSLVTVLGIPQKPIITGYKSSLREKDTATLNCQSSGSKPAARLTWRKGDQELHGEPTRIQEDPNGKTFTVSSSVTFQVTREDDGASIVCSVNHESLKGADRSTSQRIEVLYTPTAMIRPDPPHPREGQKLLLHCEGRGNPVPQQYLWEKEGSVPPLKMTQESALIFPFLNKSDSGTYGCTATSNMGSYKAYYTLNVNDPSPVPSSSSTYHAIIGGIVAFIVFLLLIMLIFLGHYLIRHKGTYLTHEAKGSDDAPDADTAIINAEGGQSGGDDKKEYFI
# B1: Antibody-2 (antibody, V domains shown)
# VH: EVQLLESGGGLVQPGGSLRLSCAASGFTFSKYEMVWVRQAPGKGLEWVSYIVPSGGATLYADSVKGRFTISRDNSKNTLYLQMNSLRAEDTAVYYCARVKAGVFDYWGQGTL
# VL: QYELTQPPSVSVSPGQTARITCSGDRLGETYVSWYQQKPGQSPVLVIFEDNKRPSGIPERFSGSNSGNTATLTVSGTRAMDEADYYCQAWVGSTPFVFGTGTKVTVL
# B2: AB2 NF (antibody, V domains shown)
# VH: B1 VH
# VL: B1 VL
# B3: Antibody-1 (antibody, V domains shown)
# VH: EVQLLESGGGLVQPGGSLRLSCAASGFTFSFYPMQWVRQAPGKGLEWVSSIGSSGGYTKYADSVKGRFTISRDNSKNTLYLQMNSLRAEDTAVYYCTRDRWYFDLWGRGTL
# VL: QSELTQDPAVSVALGHTVKITCQGDTFRTYYASWYQQKPGQAPLLVVYGENKRPSGIPDRFSGSTSGNTASLTITGAQAEDEADYYCHSRDNSGHLHVFGGGTKVTVL
# B4: anti-CADM1 AB-10, mouse IgG2a isotype (antibody, V domains shown)
# VH: B3 VH with F31M, P33T, Q35S, G52W, Y57K, K59S, T97A, R98K, D99E, R100S
# VL: QYELTQDPAVSVALGQTVRITCQGHSLRSYYATWYQQKPGQAPVLVMYGENNRPSGIPDRFSGSSSGNTASLTITGAQAEDEADYYCNSRDNSGNHLVFGGGTNLTVL
# notes: also called AB-10 mouse lgG2a
# B5: Antibody-3 (antibody, V domains shown)
# VH: B3 VH with F31R, Q35Y, G52S, Y57L, K59H, T97A, D99G, R100D
# VL: QYELTQDPAVSVALGQTVRITCQGDSLRTYYASWYQQRPGQAPVLVIYGDNDRPSGIPDRFSGSTSRNTASLTITGAQAEDEAHYYCNSRDSSGNHIFATGTKVTVL
# notes: also called AB3; AB 3
# B6: Antibody-10 (antibody, V domains shown)
# VH: B3 VH with F31M, P33T, Q35S, G52W, Y57K, K59S, T97A, R98K, D99E, R100S
# VL: B4 VL
# notes: also called AB10; AB 1 0
# Tests used:
# [1] = biological target: T1, Cell adhesion molecule-1 (CADM1), human, on the cell surface (human); assay: flow cytometry, LnCaP prostate cancer cells, antibody 10ug/ml
# [2] = biological target: T1, Cell adhesion molecule-1 (CADM1), human, on the cell surface (human); assay: flow cytometry, LnCaP cells (second table of Example 15)
# [3] = biological target: T1, Cell adhesion molecule-1 (CADM1), human, on the cell surface (human); assay: flow cytometry, Lovo colon cancer cells, antibody 10ug/ml
# [4] = biological target: T2, CADM1 extracellular domain expressed by the CHO-Flpln CADM1 cell line (human); assay: flow cytometry, CHO-Flpln CADM1 cells
# [5] = biological target: T1, Cell adhesion molecule-1 (CADM1), human, on the cell surface (human); assay: flow cytometry, SKMEL28 melanoma cells, antibody 10ug/ml
# [6] = biological target: T1, Cell adhesion molecule-1 (CADM1), human, on the cell surface (human); assay: flow cytometry, DU145 prostate cancer cells, antibody 10ug/ml
# [7] = biological target: T1, Cell adhesion molecule-1 (CADM1), human, on the cell surface (human); assay: flow cytometry, MDA-MB-435S melanoma cells, antibody 10ug/ml
# [8] = biological target: T1, Cell adhesion molecule-1 (CADM1), human, on the cell surface (human); assay: flow cytometry, Caco-2 colon cancer cells, antibody 10ug/ml
# [9] = biological target: T1, Cell adhesion molecule-1 (CADM1), human, on the cell surface (human); assay: flow cytometry, LnCaP cells
# [10] = biological target: T1, Cell adhesion molecule-1 (CADM1), human, on the cell surface (human); assay: flow cytometry, SW480 colon cancer cells, antibody 10ug/ml
# [11] = biological target: T1, Cell adhesion molecule-1 (CADM1), human, on the cell surface (human); assay: cell-based or functional assay
# [12] = biological target: T1, Cell adhesion molecule-1 (CADM1), human, on the cell surface (human); assay: flow cytometry, DU145 cells
# [13] = biological target: T2, CADM1 extracellular domain expressed by the CHO-Flpln CADM1 cell line (human); assay: flow cytometry, CHO-Flpln CADM1 cells (second table of Example 15)
# [14] = biological target: T3, Cell adhesion molecule-1 (CADM1), …; assay: flow cytometry titration, A375 melanoma cells, mouse IgG2a isotype
# [15] = biological target: T4, CADM2, human, on transfected CHO cells; assay: flow cytometry, CHO cells transiently transfected with CADM2
# [16] = biological target: T3, Cell adhesion molecule-1 (CADM1), …; assay: flow cytometry titration, SKOV3 ovary cancer cells
# [17] = biological target: T5, CADM4, human, on transfected CHO cells; assay: flow cytometry, CHO cells transiently transfected with CADM4
# [18] = biological target: T6, CADM3, human, on transfected CHO cells; assay: flow cytometry, CHO cells transiently transfected with CADM3
# [19] = biological target: T3, Cell adhesion molecule-1 (CADM1), …; assay: flow cytometry titration, A375 melanoma cells, human IgG1 isotype
Binder,percent of cells bound [2] [%],percent of cells bound [4] [%],% of fluorescence cells [6] [%],percent of cells bound [9] [%],percent of cells bound [12] [%],percent of cells bound [13] [%],binding result [15],binding result [17],binding result [18],further results
B1,98.6,99.9,99.5,99.5,99.5,98.3,,,,"% of fluorescence cells [1]: 98.6%; % of fluorescence cells [3]: 99.2%; % of fluorescence cells [5]: 100%; % of fluorescence cells [7]: 100%; % of fluorescence cells [8]: 99.6%; % of fluorescence cells [10]: 100%; % cell viability at 100 nM, Hum-ZAP assay, A375 melanoma cells [11]: 26.2%; % cell viability at 100 nM, Hum-ZAP assay, Caco-2 colon cancer cells [11]: 55.9%; % cell viability at 100 nM, Hum-ZAP assay, Lovo colon cancer cells [11]: 34.3%; % cell viability at 100 nM, Hum-ZAP assay, MDA-MB-435S melanoma cells [11]: 27.3%; % cell viability at 100 nM, Hum-ZAP assay, SKMEL28 melanoma cells [11]: 36.7%; % cell viability at 100 nM, Hum-ZAP assay, SW480 colon cancer cells [11]: 20.6%; % of viability, Hum-ZAP internalization assay, positive CADM1 cell line, antibody 10-6 M [11]: 85.1%; % of viability, Hum-ZAP internalization assay, positive CADM1 cell line, antibody 10-7 M [11]: 29.3%; % of viability, Hum-ZAP internalization assay, positive CADM1 cell line, antibody 10-8 M [11]: 14%"
B2,96.8,,,,,98.5,,,,
B3,,99.8,99,99.6,99,,,,,"% cell viability at 100 nM, Hum-ZAP assay, DU145 prostate cancer cells [11]: 60.6%"
B4,,,,,,,,,,EC50 [14]: 0.76 nM
B5,,99.7,,,,,no binding (tested: 10ug/ml (protocol of Example 19)),no binding (tested: 10ug/ml (protocol of Example 19)),no binding (tested: 10ug/ml (protocol of Example 19)),EC50 [16]: 1 nM
B6,,99.8,,,,98.7,no binding (tested: 10ug/ml (protocol of Example 19)),no binding (tested: 10ug/ml (protocol of Example 19)),no binding (tested: 10ug/ml (protocol of Example 19)),EC50 [19]: 1.26 nM
